From patent US20240425579A1

Tests used:
[1] = target: T1, biotinylated hu-PDL2 (human) (UniProt Q9BQ51); assay: ELISA: construct coated at 1 µg/mL, varying biotinylated hu-PDL2, streptavidin-HRP
T1 sequence (biotinylated, looked up): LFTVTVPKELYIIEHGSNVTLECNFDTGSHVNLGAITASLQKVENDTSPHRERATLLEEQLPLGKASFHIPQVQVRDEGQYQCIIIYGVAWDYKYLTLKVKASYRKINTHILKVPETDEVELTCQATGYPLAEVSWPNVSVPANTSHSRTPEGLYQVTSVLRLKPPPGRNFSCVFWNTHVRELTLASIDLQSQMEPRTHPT

[2] = target: T1, biotinylated hu-PDL2 (human); assay: ELISA: varying concentrations of construct coated, fixed biotinylated hu-PDL2 (500 ng/mL)

Sequence of wild type PD1 construct (wild-type PD1 ECD comparator of anti-IL-23-PD1ecd) (heavy, part): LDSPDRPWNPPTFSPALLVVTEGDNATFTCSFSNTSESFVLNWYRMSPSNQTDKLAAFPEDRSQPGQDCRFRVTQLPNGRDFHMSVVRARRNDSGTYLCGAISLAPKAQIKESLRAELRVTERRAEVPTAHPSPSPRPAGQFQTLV

EC50 [1]: 0.131 µM | EC50 [2]: 6 µM
Substance: wild type PD1 construct (wild-type PD1 ECD comparator of anti-IL-23-PD1ecd)
